Measured values taken from the Human Domainome abundance scans (Beltran et al. 2025).

B1: 1-phosphatidylinositol 4,5-bisphosphate phosphodiesterase gamma-2, residues 772 to 827; numbered along this chain, P16885 (parent)
chain: RTVKALYDYKAKRSDELSFCRGALIHNVSKEPGGWWKGDYGTRIQQYFPSNYVEDI

Variants of: B1
Test: abundance fitness (aPCA) (normalised: wild type 0, dead -1); higher = more abundant; growth selection in yeast, the domain comes from the species named
Details: Homo sapiens

Abundance fitness: each site, then its substitutions
L24: D -0.781, H -0.335, M -0.207, Y 0.041, P -0.818, T -0.222, V -0.046, Q -0.267, G -0.837, R -0.299, W -0.359, N -0.212, E -0.083, C -0.044, A -0.659, K -0.215
L17: Q -0.903, V -0.41, I -0.154, A -0.922, R -0.945, F -0.492, G -1, T -0.788, M 0.012, E -0.81, W -0.884
A11: T -0.461, W -0.989, V -0.972
H26: W -0.072, P -1.1, F 0.012, Q -0.005, V -0.035, C -0.087, N -0.198, I -0.084, L -0.081, M -0.069, T 0.034, G -0.43, Y -0.121, D -0.173, K -0.221, S 0.01, A -0.113, E -0.002
K12: L -0.177, G -0.182, E -0.206, W -0.369, I -0.405, F -0.63, D -0.239, C -0.705, P -0.93, T -0.097, H 0.113, V -0.217, S -0.263, M -0.004, R -0.092, Y -0.48, A -0.16, Q -0.077, N -0.181
G33: W -0.258, S -0.114, A -0.547, T -0.421, D -0.168, E -0.274, L -0.408, F -0.203, C -0.108, V -0.82, Q -0.556, P -0.699, R -0.434, H -0.277, K -0.781, N -0.102, Y -0.293
E31: N -0.169, T 0.141, F 0.016, G 0.065, H -0.265, K -0.135, D -0.22, I -0.174, C -0.069, L -0.015, Q -0.071, Y -0.05, M -0.009, A -0.1, V -0.099, S 0.002, W 0.036, P -0.291
E16: W -1.02, M -0.633, V -0.612, Q -0.168, R -0.528, T -0.442, K -0.822, L -0.486, H -0.201, S -0.618, G -0.354, A -0.456
S29: F 0.151
G34: A -0.074, M -0.11, S -0.129, E -0.06, L -0.083, W -0.445, P 0.01, T 0.014, Q -0.094, Y -0.164, K 0.024, N 0.138, V -0.032, R -0.06, H -0.101, D -0.085, I -0.143, C -0.284
I25: V -0.481, S -1, L -0.386, F -0.598, Q -0.921, R -0.976, W -0.723, A -0.741
G22: P -0.688, T -0.872, V -0.911, M -0.52, C -0.86, Y -0.856, D -0.236, E -0.418, H -0.704, S -0.681, W -0.811, F -0.802, L -1.14, R -0.775, K -0.203, N -0.364
V28: A -0.873, M -1.08, K -0.623, W -0.793, R -0.788, C -0.568, T -0.486, S -0.836, Q -0.762, D -0.821, N -0.671
W35: D -0.381, A -0.383, F 0.044, E -0.217
D15: S 0.006, C -0.165, G -0.047, T 0.178, P -0.879, L -0.37, A -0.182, F -0.124, R -0.427, H -0.362, I -0.027, Y -0.254, N -0.048, Q -0.214, K -0.503, V -0.041, E 0.018, M 0.185
R21: N -0.086, L -0.79, V -0.122, K -0.247, F -0.235, S -0.285
P32: L -0.014, F -0.247, A 0.056, Q 0.022, V -0.315, N 0.256, W -0.406, G -0.115, K -0.229, S -0.011, D -0.087, C -0.275, M 0.093, E 0.126, R -0.166, Y -0.278
R13: K -0.267, M -0.021, Q -0.301, F -0.007, D -0.281, C -0.212, W -0.846, G -0.316, H -0.26, Y -0.1, L -0.645, E -0.306, T -0.368, V -0.47, S -0.056
C20: W -0.446, M -0.063, G -0.059, F -0.17, H 0.151, N -0.037, A 0.004, V 0.017, S 0.008, R 0.11, K 0.002, I -0.216, D -0.095, Q -0.143, P 0.209, L -0.116, T -0.012
K30: Y 0.039, G -0.576, A -0.195, F -0.21, V -0.047, W -0.293, L -0.169, N -0.167, M -0.092, D -0.214, R -0.05, I 0.245, E -0.042, Q -0.208, T -0.245, C -0.077, P 0.246, H -0.054
S18: E 0.018, L -0.987, D -0.201, C -0.512, V -0.914, A -0.862, R -0.936, F -0.927, T -0.187, N -0.619, G -0.679, P -0.907
F19: P -0.536, G -0.604, C -0.64, L -0.779, A -0.758, V -0.886, R -0.966, Q -0.721, D -0.685, E -0.711, K -0.558
N27: A -0.56, F -1.05, G -0.654, W -0.956, E -0.164, S -0.473, Q -0.13, I -0.748, R -0.549, M -0.695, L -0.974, K -0.625, H -0.486, V -0.958, C -0.722
S14: Y -0.304, D -0.053, Q 0.037, E -0.206, C -0.124, P -0.439, R 0.026, H -0.107, K -0.172, V -0.16, F 0.024, M 0.024, T -0.291, I 0.031, A 0.038, W -0.334, N -0.316, L -0.167, G -0.007
A23: C -0.092, K -0.745, F -0.314, S -0.154, W -0.858, R -0.698, I -0.613, D 0.096, N -0.131, E -0.052, Y -0.059, Q -0.595, T -0.065, V -0.296, H -0.471
